B1: TRIM29 (parent)
chain: RKCPVHGKTMELFCQTDQTCICYL

Variants of: B1
Assay: protein stability index of a GFP-peptide fusion (GPS, HEK-293T) (PSI 1-6); higher = more stable
Details: c terminus: a fixed tail appended
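Note: lentivirally expressed fusions sorted by FACS into six bins by GFP to DsRed ratio, PSI derived from sequencing read proportions per bin multiplied by bin number.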

Protein stability index of substitutions, site by site:
G7: Y 2.14
T9: Y 2.25 | G 2.72 | F 3.32 | E 2.06 | M 2.77 | I 1.49 | Q 1.77 | W 2.42 | H 1.78 | A 2.95 | N 2.79 | K 2.46 | P 1.98 | R 1.21 | D 2.81 | C 1.75 | L 2.56 | S 3.03 | V 2.41
Q15: D 1.52 | K 1.79 | R 1.78 | L 3.21 | N 2 | T 2.14 | C 3.22 | E 1.56 | P 2.66 | S 2.48 | V 2.75 | H 2.26 | A 2.75 | M 2.43 | Y 1.92 | I 1.88 | F 3.06 | G 2.93
C14: I 2.41 | E 2.77 | G 1.86 | L 2.27 | S 2.35 | P 2 | H 2.83 | R 2.5 | Y 2.59 | V 1.47 | K 1.89 | W 1.89 | T 3.06 | F 3.17 | A 2.5 | Q 2.03 | N 2.33 | D 2.1 | M 1.46
F13: T 2.38 | R 1.96 | A 1.78 | E 2.47 | C 2.23 | H 2.5 | Q 3.27 | L 2.04 | V 2.58 | P 2.4 | M 3.16 | S 2.5 | I 2.89 | G 2.93 | K 2.99 | Y 2.32 | N 2.72
M10: H 2.43 | K 2.02 | Y 1.83 | S 2.43 | D 2.44 | N 2.14 | W 1.46 | R 2.84 | Q 1.87 | L 1.99 | F 2.58 | I 3.45 | E 1.46 | P 2.35 | T 1.49 | V 1.98 | G 1.65 | C 1.94 | A 1.87
T16: R 1.91 | P 2.06 | L 1.56 | F 2.51 | G 3.39 | M 1.57 | V 2.6 | Q 2.91 | K 2.15 | S 2.34 | Y 2.54 | C 3.37 | I 1.98 | N 2.62 | E 1.78 | W 2.17 | A 2.24 | D 2.1 | H 2.44
E11: V 2.9 | D 2.49 | F 1.76 | T 2.66 | S 2.85 | G 2.31 | M 1.7 | L 3.23 | N 2.55 | A 1.83 | I 2.77 | W 2.41 | H 2.56 | Y 1.8 | Q 1.47 | R 2.14 | P 2.95 | K 1.92
L12: C 2.81 | H 2.66 | T 1.58 | R 1.99 | N 1.99 | A 2.21 | F 1.61 | W 1.08 | E 1.53 | Y 2.86 | M 2.98 | D 2.81 | K 1.46 | S 2.65 | P 2.08 | V 2.87 | G 1.68 | I 2.47
K8: E 2.59 | D 1.94 | S 1.44 | A 2.58 | V 2.54 | L 1.37 | Y 1.23 | C 1.85 | R 2.09 | F 2.24 | H 2.83 | G 1.59 | Q 2 | T 2.52 | N 2.56 | M 2.45 | P 1.48 | W 2.77 | I 1.59
